PMC11042539 (Journal of the American Chemical Society, 2011)
Where two headings read alike, the source gives them in different places.

Key:
Ag85c = Ag85c (Mycobacterium tuberculosis, UniProt P9WQN9); test: biochemical
[1] = system: OC[C@H]1O[C@H](O[C@H]2O[C@H](CO)[C@@H](O)[C@H](O)[C@H]2O)[C@H](O)[C@@H](O)[C@@H]1O; test: purified protein

Chain of Ag85c (P9WQN9 46-340 limits assumed): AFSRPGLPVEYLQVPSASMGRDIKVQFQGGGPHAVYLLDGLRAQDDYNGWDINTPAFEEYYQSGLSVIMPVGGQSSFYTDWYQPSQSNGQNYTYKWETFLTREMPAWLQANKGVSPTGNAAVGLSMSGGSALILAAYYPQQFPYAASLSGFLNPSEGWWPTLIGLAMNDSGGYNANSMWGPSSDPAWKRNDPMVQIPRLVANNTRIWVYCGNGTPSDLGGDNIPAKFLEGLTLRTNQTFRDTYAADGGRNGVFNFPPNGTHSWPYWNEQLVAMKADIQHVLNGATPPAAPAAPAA

Compound	Ki (Ag85c)	Km [1]	kcat [1]	kcat/Km [1]	Km ([1]; Ser-His-Asp catalytic triad at the trehalose binding site)
CCCCCC(=O)OC[C@H]1O[C@H](O[C@H]2O[C@H](COC(=O)CCCCC)[C@@H](O)[C@H](O)[C@H]2O)[C@H](O)[C@@H](O)[C@@H]1O [2b, 6,6’-di-hexanoyltrehalose]	355 ± 106 µM	–	–	–	–
Ag85a (Mycobacterium tuberculosis H37Rv)	–	175 µM	0.014 s⁻¹	82 M⁻¹ s⁻¹	–
Ag85b (Mycobacterium tuberculosis H37Rv)	–	112 µM	0.003 s⁻¹	30 M⁻¹ s⁻¹	–
Ag85c (Mycobacterium tuberculosis H37Rv)	–	–	–	–	16.9 ± 5.3 µM
